The text below walks through data of article PMC2323298 (PLoS Pathogens, 2007).

The target in assay [1] is T1, AMA1 (apical membrane antigen 1) domains I+II (Plasmodium falciparum 3D7, UniProt Q7KQK5).
T1 construct: also called AMA1 domains I+II
The assay is described as follows: crystal structure; AMA1 domains I+II and 1F9 Fab mixed (Fab in slight excess); 20 mM MES pH 6.0, 10 mM MnCl2, 6% PEG 3350, hanging drops; two crystal forms. The following applies: both partners purified.

Assay [2] deals with T2, 3D7 AMA1 domain I expressed on M13 phage (Plasmodium falciparum 3D7, UniProt Q7KQK5).
T2 construct: also called 3D7 domain I; domain I AMA1
The assay is described as follows: ELISA. The following applies: one partner purified. For orientation: In an ELISA, binding on a coated surface is turned into a signal by an enzyme label.

Assay [3] deals with T3, Full-length 3D7 AMA1 ectodomain (Plasmodium falciparum 3D7, UniProt Q7KQK5).
T3 construct: also called recombinant full-length 3D7 AMA1 ectodomain; full-length recombinant AMA1
The assay is described as follows: ELISA; competition ELISA: 100 ul of 0.3 ug/ml full-length AMA1 ectodomain immobilised on plastic; dilutions of human plasma added, followed by 10 ul of 3.0 ug/ml mAb; peroxidase-conjugated anti-mouse antibodies. The following applies: both partners purified.

B1: 1F9 Fab fragment (Fab, V domains shown)
VH: EVQLQQSGAELLRPGASVKLSCIVSGFKIKDTSMHWVKQRPEQGLEWIGRIDPANDNSEYDPKFQGKATITADTSSNTAYLQLSSLTSEDTAVYYCTLSHFWGQGTTLTVSS
VL: SIVMTQTPKFLPVSAGDRVTIICKASQSVSNDVVWYQQKPGQSPKLLIYYASIRYTGVPDRFTGSGYGTDFTFTISTVQVEDLAVYFCQQGFSSPRTFGGGTKLEIN
notes: also called Fab 1F9
With B1, in assay [1], the binding result is given as “binds”.

B2: Mouse monoclonal antibody 1F9 (isotype IgG2b with a Kappa light chain) (antibody, V domains shown)
VH: EVQLQQSGAELLRPGASVKLSCIVSGFKIKDTSMHWVKQRPEQGLEWIGRIDPANDNSEYDPKFQGKATITADTSSNTAYLQLSSLTSEDTAVYYCTLSHFWGQGTTLTVSS
VL: SIVMTQTPKFLPVSAGDRVTIICKASQSVSNDVVWYQQKPGQSPKLLIYYASIRYTGVPDRFTGSGYGTDFTFTISTVQVEDLAVYFCQQGFSSPRTFGGGTKLEIN
notes: also called mAb 1F9
With B2, the binding result in assay [2] and in assay [3] was “binds” throughout.
